Measured values published in the supplement of paper PMC10126150.
± gives the standard deviation of the averaged measurements.

test system: ATP; assay: switch fluorescence ratio, 500 uM ATP over buffer (Cy3 cluster intensity, sum of 5 cycles each) (fold (ratio)); higher = stronger signal-on switching upon ATP binding; sequences stand for … in TCGTCGGCAGCGTCAGATGTGTATAAGAGACAGTTTTTTTTTTTTTTTTTTTTTTTTT…TC; settings: aptamer strand: ATP DNA aptamer (quencher-CACCTGGGGGAGTATTGCGGAGGAAGG + anchor), 100 nM annealed; ATP concentration: 500 uM
Outline: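 Per cluster, summed Cy3 intensity from the target cycles was divided by that from the buffer cycles to give the fluorescence ratio, then averaged per switch-domain sequence. Clusters outside 100-1000 RFU were excluded. The Cy3-labelled switching-strand clusters, on a modified Illumina MiSeq flow-cell, were annealed to 100 nM quencher-labelled ATP aptamer and imaged in selection buffer, then after 15 min with 500 uM ATP at 22 °C, for five cycles with NaOH stripping and re-annealing between them.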
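Also: ATP exposure 15 min at 22 °C before imaging.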

Row | Sequence | switch fluorescence ratio
1 | CGTCAGGCTT | 0.987 ± 0.052
2 | GCGAGTCATT | 0.9845 ± 0.007
3 | CAAAGAGGAT | 0.991 ± 0.022
4 | TTTATCGATT | 0.991 ± 0.036
5 | AAATTCGGTG | 0.999 ± 0.016
6 | GCGCCGGGGG | 1.03 ± 0.018
7 | GGTTCTTCAA | 1.01 ± 0.023
8 | GTGTATATAC | 0.993 ± 0.013
9 | GAGATTAAGA | 0.973 ± 0.1
10 | CATCTGTG | 1.03 ± 0.016
11 | TGGCGTAGTA | 1.01 ± 0.051
12 | CCTAGGGAGC | 1.07 ± 0.1
13 | GAAGAGGGAG | 0.997 ± 0.026
14 | TATTGTTAGG | 1.01 ± 0.027
15 | AGGGAAAATT | 0.995 ± 0.011
16 | GGCATTAGTT | 0.992 ± 0.043
17 | TGCCTGGCAG | 1.08 ± 0.1
18 | GATTATTTTT | 0.994 ± 0.028
19 | CAAGCGTTTC | 1.06 ± 0.024
20 | CTGGGGGGCC | 1.01 ± 0.038
21 | TGTGTGGGGG | 1.01 ± 0.031
22 | TCCTTTGCGT | 1.55 ± 0.39

Row | Sequence | switch fluorescence ratio
23 | GGGAAAGGGA | 0.978 ± 0.022
24 | TAATACTTTG | 1.04 ± 0.024
25 | TTGGGTAGAT | 0.988 ± 0.025
26 | TTGGCCGGG | 0.9643 ± 0.009
27 | ATCTGGTAAT | 1.005 ± 0.0031
28 | GGGTTTGTGG | 0.984 ± 0.023
29 | TGTTTTTATT | 1.015 ± 0.0047
30 | GTGGCTCAGG | 1.05 ± 0.054
31 | GCAGGATGAA | 0.97 ± 0.042
32 | GCACCGGGGC | 0.971 ± 0.015
33 | GTAGCTCTTA | 1.04 ± 0.019
34 | TCAAATTTTT | 0.998 ± 0.045
35 | CCACGTCAAC | 1.59 ± 0.052
36 | CAGGAGTAGC | 1.05 ± 0.018
37 | GGCTGAGGCA | 1.01 ± 0.029
38 | TGTTTTATAT | 1.01 ± 0.021
39 | CTTGGGAGGC | 1.02 ± 0.067
40 | CTCTGGGGGA | 1.05 ± 0.068
41 | TTATAGATAT | 0.994 ± 0.015
42 | CAGATTTGCT | 0.983 ± 0.013
43 | CGTTTATAGT | 1.02 ± 0.039
44 | ATTTTCTGTA | 1.0017 ± 0.00088

Row | Sequence | switch fluorescence ratio
45 | GGGAGAGGGA | 0.978 ± 0.021
46 | AGGCCGGCAA | 1.02 ± 0.045
47 | ACTTCGGGTA | 1.003 ± 0.0017
48 | GGGAAAATAT | 0.999 ± 0.063
49 | CGTCCAGTTC | 1.08 ± 0.023
50 | CCATGCAGGC | 1.28 ± 0.13
51 | TTTTTAAAAC | 1.003 ± 0.0097
52 | TTGGTTGTCG | 1.02 ± 0.019
53 | TTAAGGAGGT | 1.03 ± 0.099
54 | AAGAGTTCTG | 1 ± 0.011
55 | AAAGCTGCGT | 0.9843 ± 0.0049
56 | GACGGGTTGG | 0.992 ± 0.045
57 | TTTGTACTCG | 1.01 ± 0.011
58 | TAACACGGTA | 1.16 ± 0.0035
59 | TTTATACGGG | 1.02 ± 0.039
60 | CGTTGGGGGA | 0.997 ± 0.029
61 | TAATAACTCT | 1 ± 0.061
62 | TTTTATTTTA | 0.991 ± 0.039
63 | AAACATAGGG | 1.02 ± 0.038
64 | CAATTTTTCA | 1 ± 0.069
65 | GCTTGGTTTT | 1.01 ± 0.013
66 | GACTGAGTTC | 0.972 ± 0.042

Row | Sequence | switch fluorescence ratio
67 | TTTTGGCAGA | 0.982 ± 0.047
68 | TTACTTATTA | 1.07 ± 0.018
69 | TTCTTGTGTT | 0.993 ± 0.042
70 | CAATGATAGG | 0.992 ± 0.017
71 | CTTGATTATA | 1.007 ± 0.0061
72 | CGCTGTGGAG | 1.01 ± 0.012
73 | AAGCATCACG | 1.07 ± 0.011
74 | AAACGGATGC | 0.9573 ± 0.0092
75 | TGGTGATTGT | 1.02 ± 0.017
76 | GGGATTGGGC | 0.992 ± 0.022
77 | CTTCACATCG | 1.03 ± 0.041
78 | TTAAAGTGGT | 0.9789 ± 0.00047
79 | CATAGGGGCC | 0.9643 ± 0.0074
80 | TTGAGACAGG | 1.0131 ± 0.00096
81 | TTGGGGGTCA | 1.01 ± 0.023
82 | GAGATGTACC | 1.03 ± 0.026
83 | AGAGTTACCG | 1.04 ± 0.017
84 | CACGAAAGGA | 1.07 ± 0.033
85 | TCGCCAAATT | 1.1 ± 0.21
